Legend:
[1] = molecular target: column ligand of the Strep-Tag system (Prot)
[2] = molecular target: column ligand of the FLAG-Tag system (Prot)

Substance | Capacity [1] | Kd [1] | Capacity [2] | Kd [2]
Strep-Tag (peptide) | 6 mg/mL | 1000 nM | – | –
FLAG-Tag (peptide) | – | – | 0.6 mg/mL | 1 nM

— patent publication US20240417426A1
